Consider 31 molecules from patent publication US7026443.

The target in test [1] is HLA-A*0201 (human). Briefly: competition with 125I-labeled standard probe peptide for purified HLA-A*0201, gel filtration. On the technique in general: SEC sorts molecules by how far they enter the pores of the column.
The target of test [2] is HLA-B*0702 (human).
In test [3] the target is HLA-B*5301 (human).
The target of test [4] is HLA-B*3501 (human).
Test [5] deals with HLA-B*5401 (human).
The target in test [6] is HLA-B*5101 (human).
In test [7] the target is HLA-A*1101 (human). Briefly: competition with 125I-labeled standard probe peptide for purified HLA-A*1101, gel filtration.
Test [8] addresses HLA-A*0201 (human). Nature of the test: competition against 125I-labelled standard peptide on purified HLA-A*0201, gel filtration.
For test [9], the target named is HLA-A*1101 (human). Briefly: competition with 125I-labelled standard peptide for purified HLA, gel filtration.
The next test concerns the target HLA-A*6801 (human). The test is described as above.
For another test, the target named is HLA-A*3301 (human). Described as above.
Test [10] addresses HLA-A*0301 (human). The test is described as above.
The target in a further test is HLA-A*3101 (human). Described as above.
The target in test [11] is HLA-B*0702 (human). Nature of the test: competition with 125I-labeled standard peptide for purified HLA, gel filtration.
The target of test [12] is HLA-B*5301 (human). The description is as above.
The target in test [13] is HLA-B*3501 (human). The description is as above.
Test [14] addresses HLA-B*5401 (human). The test is described as above.
In test [15] the target is HLA-B*5101 (human). The description is as above.
In test [16] the target is HLA-A*0201 (human). Briefly: competition with 125I-labelled standard peptide for purified HLA, gel filtration.
The target in test [17] is HLA-A*1101 (human). Nature of the test: competition with 125I-labeled standard peptide for purified HLA, gel filtration.
For test [18], the target named is HLA-A*0301 (human). Described as above.
Test [19] addresses HLA-A*0301 (human). Nature of the test: competition with 125I-labeled standard probe peptide for purified HLA-A*0301, gel filtration.
In test [20] the target is HLA-A*1101 (human). Briefly: competition with 125I-labeled standard peptide for purified HLA-A*1101, gel filtration.

Read-outs that look alike come from different tables or passages of the source.

B1: HPV31 E7 peptide … (position 64, 9 amino acids) (peptide)
peptide: TLRLCVQST
modifications: not checked
As to B1, in the test with HLA-A*0201 (human) [1], the relative binding ratio (IC50 of standard peptide / IC50 of test peptide) turned out to be 0.0061.

B2: HPV18 E1 583 peptide … (peptide)
peptide: WPYLESRITV
modifications: not checked
As to B2, the binding affinity ratio (IC50 of standard peptide / IC50 of test peptide) with HLA-B*0702 (human) [2] worked out at 0.0067; with HLA-B*5301 (human) [3] it was 0.014; in the test with HLA-B*3501 (human) [4], 0.0066; in the test with HLA-B*5401 (human) [5], 0.024; in the test with HLA-B*5101 (human) [6], 0.055.

B3: HPV18 E1 263 peptide … (peptide)
peptide: QPFILYAHI
modifications: not checked
As for B3, the binding affinity ratio (IC50 of standard peptide / IC50 of test peptide) with HLA-B*0702 (human) [2] turned out to be 0.0002; with HLA-B*5301 (human) [3], 0.0017; with HLA-B*3501 (human) [4], 0.0003; in the test with HLA-B*5401 (human) [5] it was 0.0034; with HLA-B*5101 (human) [6], 0.21.

B4: HPV45 E1 265 … (SEQ ID NO: 43630) (peptide)
peptide: GVLILALLR
modifications: not checked
As to B4, in the test with HLA-A*1101 (human) [7], the relative binding ratio (IC50 of standard peptide / IC50 of test peptide) turned out to be 0.14.

B5: HPV16 E1 267 … (peptide)
peptide: LACSWGMVV
modifications: not checked
With B5, in the test with HLA-A*0201 (human) [8], the relative binding ratio (IC50 of standard peptide / IC50 of test peptide) was determined as 0.0006.

B6: HPV16 E6 peptide … (peptide)
peptide: CMSCCRSSR
modifications: not checked
Regarding B6, the binding affinity ratio (IC50 of standard peptide / IC50 of test peptide) turned out to be 0.0001 with HLA-A*1101 (human) [9]; 0.0011 with HLA-A*6801 (human); 0.12 with HLA-A*3301 (human); 0.0033 in the test with HLA-A*0301 (human) [10]; 0.082 in the test with HLA-A*3101 (human).

B7: HPV16 E1 576 … (peptide)
peptide: WPYLHNRLVV
modifications: not checked
Turning to B7, the binding affinity ratio (IC50 of standard peptide / IC50 of test peptide) in the test with HLA-B*0702 (human) [11] stood at 0.095; with HLA-B*5301 (human) [12], 0.0002; with HLA-B*3501 (human) [13] it was 0.0012; in the test with HLA-B*5401 (human) [14], 0.076; with HLA-B*5101 (human) [15], 0.074.

B8: HPV16 E1 562 … (peptide)
peptide: LLITSNINA
modifications: not checked
Regarding B8, the relative binding ratio (IC50 of standard peptide / IC50 of test peptide) with HLA-A*0201 (human) [8] turned out to be 0.0022.

B9: HPV16 E6 peptide … (peptide)
peptide: YAVCDKCLK
modifications: not checked
As to B9, the binding affinity ratio (IC50 of standard peptide / IC50 of test peptide) with HLA-A*1101 (human) [9] was 0.001; with HLA-A*6801 (human), 0.012; with HLA-A*0301 (human) [10], 0.0003; with HLA-A*3101 (human) it was 0.0015.

B10: HPV18 E1 254 peptide … (peptide)
peptide: IAEGFKTLI
modifications: not checked
Consider B10, for which the binding affinity ratio (IC50 of standard peptide / IC50 of test peptide) in the test with HLA-A*0201 (human) [16] was determined as 0.0003.

B11: HPV16 E6 11 … (peptide)
peptide: DPQERPRKL
modifications: not checked
Consider B11, for which the binding affinity ratio (IC50 of standard peptide / IC50 of test peptide) was 0.0001 with HLA-B*0702 (human) [11]; 0.0001 in the test with HLA-B*5301 (human) [12]; 0.0001 in the test with HLA-B*3501 (human) [13]; 0.0002 with HLA-B*5401 (human) [14]; 0.0001 with HLA-B*5101 (human) [15].

B12: HPV16 E1 576 … (peptide)
peptide: WPYLHNRLV
modifications: not checked
As for B12, the binding affinity ratio (IC50 of standard peptide / IC50 of test peptide) with HLA-B*0702 (human) [11] amounted to 0.052; with HLA-B*5301 (human) [12] it was 0.0002; in the test with HLA-B*3501 (human) [13] it was 0.0003; with HLA-B*5401 (human) [14], 0.18; with HLA-B*5101 (human) [15] it was 0.11.

B13: HPV18 E1 447 peptide … (peptide)
peptide: RPIVQFLRY
modifications: not checked
Turning to B13, the binding affinity ratio (IC50 of standard peptide / IC50 of test peptide) amounted to 0.0033 with HLA-B*0702 (human) [2], 0.023 in the test with HLA-B*5301 (human) [3] and 0.04 with HLA-B*3501 (human) [4].

B14: HPV16 E6 peptide … (peptide)
peptide: LIRCINCQK
modifications: not checked
B14: the binding affinity ratio (IC50 of standard peptide / IC50 of test peptide) with HLA-A*1101 (human) [9] was 0.0009; with HLA-A*6801 (human) it was 0.0021; with HLA-A*3301 (human), 0.0041; with HLA-A*0301 (human) [10] it was 0.0025; with HLA-A*3101 (human), 0.0012.

B15: HPV31 E1 peptide … (position 11, 10 amino acids) (peptide)
peptide: GTGCNGWFYV
modifications: not checked
For the molecule B15, in the test with HLA-A*0201 (human) [1], the relative binding ratio (IC50 of standard peptide / IC50 of test peptide) (ratio to standard peptide) came to 0.0006.

B16: HPV16 E1 peptide … (position 567, 9 amino acids) (peptide)
peptide: NINAGTDSR
modifications: not checked
For the molecule B16, the relative binding ratio (IC50 of standard peptide / IC50 of test peptide) with HLA-A*1101 (human) [17] turned out to be 0.0002; with HLA-A*0301 (human) [18], 0.0005. Moreover, the binding affinity ratio (IC50 of the standard peptide / IC50 of the test peptide) with HLA-A*0301 (human) [19] came to 0.0005.

B17: HPV16 E1 peptide … (position 202, 9 amino acids) (peptide)
peptide: NAKAAMLAK
modifications: not checked
For B17, the figures for the relative binding ratio (IC50 of standard peptide / IC50 of test peptide) with HLA-A*1101 (human) [17] and with HLA-A*0301 (human) [18] were 0.0031 and 0.0005, respectively. For the same molecule, in the test with HLA-A*0301 (human) [19], the binding affinity ratio (IC50 of the standard peptide / IC50 of the test peptide) was 0.0005.

B18: HPV16 E1 292 … (peptide)
peptide: KLLSKLLCV
modifications: not checked
With B18, the relative binding ratio (IC50 of standard peptide / IC50 of test peptide) with HLA-A*0201 (human) [8] was determined as 0.051.

B19: HPV31 E1 489 peptide … (SEQ ID NO: 41921) (peptide)
peptide: WLQPLADAK
modifications: not checked
As for B19, the relative binding ratio (IC50 of standard peptide / IC50 of test peptide) in the test with HLA-A*1101 (human) [7] was found to be 0.0002.

B20: HPV45 E1 327 … (SEQ ID NO: 43619) (peptide)
peptide: GDTPEWIQR
modifications: not checked
Consider B20, for which the relative binding ratio (IC50 of standard peptide / IC50 of test peptide) in the test with HLA-A*1101 (human) [7] amounted to 0.0002.

B21: HPV45 E1 433 peptide … (peptide)
peptide: RPIVQFLRY
modifications: not checked
B21: the binding affinity ratio (IC50 of standard peptide / IC50 of test peptide) (ratio relative to standard peptide) with HLA-B*0702 (human) [2] worked out at 0.0033; with HLA-B*5301 (human) [3], 0.023; in the test with HLA-B*3501 (human) [4], 0.04.

B22: HPV18 E1 315 peptide … (peptide)
peptide: QPPKLRSSVA
modifications: not checked
As for B22, the binding affinity ratio (IC50 of standard peptide / IC50 of test peptide) with HLA-B*5301 (human) [3] turned out to be 0.0002; with HLA-B*3501 (human) [4] it was 0.0003; in the test with HLA-B*5401 (human) [5], 0.039; in the test with HLA-B*5101 (human) [6] it was 0.0002.

B23: HPV16 E1 peptide … (position 196, 9 amino acids) (peptide)
peptide: NVLKTSNAK
modifications: not checked
For B23, the relative binding ratio (IC50 of standard peptide / IC50 of test peptide) with HLA-A*1101 (human) [17] came to 0.0015; with HLA-A*0301 (human) [18], 0.0005. Also, in the test with HLA-A*0301 (human) [19], the binding affinity ratio (IC50 of the standard peptide / IC50 of the test peptide) stood at 0.0005.

B24: … (HPV16 E6, position 30, 10 amino acids) (peptide)
peptide: IHDIILECVY
modifications: not checked
On to B24, for which, in the test with HLA-A*0101 (human), the relative binding ratio (IC50 of standard peptide / IC50 of test peptide) stood at 0.028.

B25: HPV18 E1 569 peptide … (peptide)
peptide: ILLTTNIHPA
modifications: not checked
Take B25: in the test with HLA-A*0201 (human) [16], the binding affinity ratio (IC50 of standard peptide / IC50 of test peptide) is 0.08.

B26: HPV18 E1 266 peptide … (peptide)
peptide: ILYAHIQCL
modifications: not checked
Consider B26, for which, in the test with HLA-A*0201 (human) [16] (remark: other sources report otherwise), the binding affinity ratio (IC50 of standard peptide / IC50 of test peptide) is 0.081.

B27: HPV31 E7 peptide … (position 63, 10 amino acids) (peptide)
peptide: STLRLCVQST
modifications: not checked
In the case of B27, the relative binding ratio (IC50 of standard peptide / IC50 of test peptide) in the test with HLA-A*0201 (human) [1] came to 0.0012.

B28: HPV18 E1 315 peptide … (peptide)
peptide: QPPKLRSSV
modifications: not checked
In the case of B28, the binding affinity ratio (IC50 of standard peptide / IC50 of test peptide) came to 0.0002 with HLA-B*5301 (human) [3], 0.0003 with HLA-B*3501 (human) [4] and 0.0002 with HLA-B*5101 (human) [6].

B29: HPV31 E1 489 peptide … (SEQ ID NO: 34685) (peptide)
peptide: WLQPLADAK
modifications: not checked
Take B29: the relative binding ratio (IC50 of standard peptide / IC50 of test peptide) in the test with HLA-A*0301 (human) [19] came to 0.0005.

B30: HPV16 E1 297 … (peptide)
peptide: LLCVSPMCM
modifications: not checked
Turning to B30, the relative binding ratio (IC50 of standard peptide / IC50 of test peptide) with HLA-A*0201 (human) [8] was determined as 0.0008.

B31: HPV45 E1 267 peptide … (SEQ ID NO: 43681) (peptide)
peptide: LILALLRYK
modifications: not checked
Regarding B31, in the test with HLA-A*1101 (human) [20], the relative binding ratio (IC50 of standard peptide / IC50 of test peptide) is 0.18.
